Experimental data as given in patent US20220073621A1 (EUCURE BEIJING BIOPHARMA, published 2022).
Numbering of substitutions follows the chain as printed.

T1: human-mouse chimeric PD-L1 on CHO cells (human-mouse chimeric, UniProt Q9EP73 19-290 (mouse entry))
T1 construct: expressed in CHO cells; also called chiPD-L1
T1 chain: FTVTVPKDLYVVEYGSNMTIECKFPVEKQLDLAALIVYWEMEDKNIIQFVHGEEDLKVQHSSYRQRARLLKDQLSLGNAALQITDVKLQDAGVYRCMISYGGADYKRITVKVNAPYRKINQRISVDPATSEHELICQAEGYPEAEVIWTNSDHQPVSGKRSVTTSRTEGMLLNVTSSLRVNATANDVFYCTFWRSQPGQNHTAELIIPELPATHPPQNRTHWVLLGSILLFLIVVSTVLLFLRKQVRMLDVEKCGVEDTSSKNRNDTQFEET

T2: Rhesus monkey PD-L1 on CHO cells (rhesus monkey, UniProt Q9NZQ7 19-290 (human entry))
T2 construct: Expressed in CHO cells for the cross-reactivity test; also called rmPD-L1; NP_001077358.1
T2 chain: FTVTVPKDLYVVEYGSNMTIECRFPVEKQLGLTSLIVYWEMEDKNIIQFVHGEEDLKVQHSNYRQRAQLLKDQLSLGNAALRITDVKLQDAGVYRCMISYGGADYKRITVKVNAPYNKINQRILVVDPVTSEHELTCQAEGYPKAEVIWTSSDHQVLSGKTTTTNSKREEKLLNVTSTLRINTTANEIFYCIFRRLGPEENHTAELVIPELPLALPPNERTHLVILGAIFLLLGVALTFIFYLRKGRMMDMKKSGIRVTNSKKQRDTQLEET

B1: 07-6A11 (antibody, V domains shown)
VH: DVQLVESGGGLVQPGGSRKLSCAASGFTFSSFGMHWVRQAPEKGLEWVAYISSGSNTIYYADTVKGRFTISRDNPKNTLFLQMTSLRSEDTAIYYCTRNGYDGWYAMDYWGQGTSVTVSS
VL: QIVLTQSPAIMSASPGEKVTMTCSASSSVSYIHWFQQKSGTSPKRWIYDTSKLASGVPARFSGRGSGTSYSLTISSMEAEDAATYYCQQWSTNPFTFGSGTKLEIK
notes: Murine monoclonal antibody from hybridoma, purified from ascites
B2: 08-3F2 (antibody, V domains shown)
VH: DVQLQESGPDLVKPSQTLSLTCTVTGYSITSGYNWHWIRQFPGNKLEWMGYIHHSSITNYNPSLKSRISITRDTSKNQFFLQLSSVTTEDTATFYCAREGYDYDWFAYWGQGTLVTVSA
VL: DIVLAQSPATLSVTPGDSVSLSCRASQSISNNLHWYQQKSHESPRLLIKYASQSISGIPSRFSGSGSGTDFTLSINSVETEDFGMYFCQQSKSWPFTFGSGTRLEIK
notes: as for B1
B3: 17-7E4 (antibody, V domains shown)
VH: QVQLQQSGAELVRPGVSVKISCKGSGFKFTDYAIHWVKQSHAKSLEWIGVISIYYGEASYNQKFKDKATLTVDTSSSTAYMELARLTSEDSAIYYCAREDYYGSSSYFDYWGQGTALTVSS
VL: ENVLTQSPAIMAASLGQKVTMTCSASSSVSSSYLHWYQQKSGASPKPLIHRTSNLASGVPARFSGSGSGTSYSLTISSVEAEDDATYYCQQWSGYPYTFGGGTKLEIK
notes: as for B1
B4: 7E4-H2K1-IgG1 (antibody, V domains shown)
VH: QVQLVQSGAEVKKPGASVKVSCKASGFKFTDYAIHWVRQAPGKSLEWMGVISIYYGEASYNQKFKDRVTLTVDTSASTAYMELSSLRSEDTAVYYCAREDYYGSSSYFDYWGQGTLVTVSS
VL: DNQLTQSPSFLSASVGDRVTITCSASSSVSSSYLHWYQQKPGAAPKPLIHRTSNLASGVPSRFSGSGSGTEFTLTISSLQPEDFATYYCQQWSGYPYTFGGGTKLEIK
B5: 7E4-H3K3-IgG1 (antibody, V domains shown)
VH: B4 VH with K12V, V20I, A24G, R67K, V93I, V117L
VL: B4 VL with D1E, Q3V, I21M, P41S, A44S, F72Y, L79V
B6: 7E4-H3K1-IgG1 (antibody, V domains shown)
VH: B4 VH with K12V, V20I, A24G, R67K, V93I, V117L
VL: B4 VL
B7: 7E4-H3K2-IgG1 (antibody, V domains shown)
VH: B4 VH with K12V, V20I, A24G, R67K, V93I, V117L
VL: B4 VL with Q3V, I21M, A44S
B8: 7E4-H2K3-IgG1 (antibody, V domains shown)
VH: B4 VH
VL: B4 VL with D1E, Q3V, I21M, P41S, A44S, F72Y, L79V
B9: 33-10C9-mHvKv-IgG1 (antibody, V domains shown)
VH: QVQLQQPGAELVKPGSSVKLSCKASGYTFTTYYIYWVKQRPGQGLEWIGGINPYNGGTSFNEKFESKATLTVDISSSTAFMQLSSLTSEDSAVYYCTRDGNYVDYWGQGTTLTVSS
VL: QIVLTQSPAIMSASPGEKVTITCSASSTVSYVHWLQQKPDTSPKLWIYSTSNLASGVPARFSGSGSGTSYSLTISRMEAEDAATYYCQQRSSSPPTFGSGTKLEIK
B10: 23-2A6-mHvKv-IgG1 (antibody, V domains shown)
VH: QVQLKESGPGLVAPSQSLSITCTVSGFSLTSYDISWIRQPPGKGLEWLGAIWTGGGTNYNSAFMSRLSISKDNSKSQVFLKMNSLQTDDTAIYYCVRDPYYYAMDYWGQGTSVTVSS
VL: DIQMNQSPSSLSASLGDTITITCHASQNLNVWLSWYQQKPGNIPKLLIYKASNLHTGVPSRFSGSGSGTGFTLTISSLQPEDIATYYCQQGQSYPRTFGGGTKLEIK
B11: 24-1F4-mHvKv-IgG1 (antibody, V domains shown)
VH: EVQLRESGPSLVRPSQTLSLTCSVTGDSFTSGYWNWIRKFPGNELESMGYISYSGSTYYNPSLKSRISITRDTSKSQFYLQLSSVTAEDTATYYCARSEGWLLPFAYWGQGTLVTVSA
VL: DIVMSQSPSSLPVSVGEKVTMSCKSSQSLLYSSNQKNSLAWYQQKPGQSPKLLIYWASTRESGVPDRFTGSGSGTDFTLTISSVQAEDLSVYYCQQYYGYPFTFGSGTKLEIK
B12: 23-4A8-mHvKv-IgG1 (antibody, V domains shown)
VH: EVQLQESGPSLVKPSQTLSLTCSVTGDSITSGYWNWIRKFPGNKLEYMGYISYTGSTYYNPSLKSRFSITRDTSKNQYFLQLNSVTTEDTATYYCASYEGWLLPFAYWGQGTLVTVSA
VL: B11 VL with P12A, T20P, M21L, N37S, Q85K, S90A

Target: T1, human-mouse chimeric PD-L1 on CHO cells
Test: flow cytometry, CHO-chiPD-L1 cells, Anti-mouse-IgGFc-FITC, antibody 1 µg/ml
Excerpt: (§1) The rhesus monkey PD-L1 protein coding sequence (rmPD-L1, SEQ ID NO: 54), the mouse PD-L1 protein coding sequence (mPD-L1, SEQ ID NO: 53), and the human-mouse chimeric PD-L1 (the extracellular region of the mouse PD-L1 protein was replaced with human protein fragments) protein coding sequence (chiPD-L1, SEQ ID NO: 55) were transferred into CHO cells for protein expression and used for the antibody cross-reactivity testing.
(§2) The test was detailed as follows: a 96-well cell culture plate was used, and the above-mentioned CHO cells expressing different PD-L1 proteins (25 μl, 2×10⁴ cells/well) was added to each well, and then 25 μl of the ascites purified anti-PD-L1 antibodies (1 μg/ml) were added to each well. The mixture was incubated at 4° C. for 30 minutes. The 96-well cell culture plate was centrifuged at 1200 rpm for 5 minutes and washed twice with PBS. Subsequently, 50 μl of anti-mouse IgG Fc-FITC at 1:100 dilution was added to each well, and was incubated at 4° C. for 30 minutes. Subsequently, the 96-well cell culture plate was centrifuged at 1200 rpm for 5 minutes, and washed once with PBS. Then 200 μl of PBS was added to each well, and flow cytometry analysis was performed.

Row | % cells in the FITC-positive gate [%] | Binder
1 | 77.4 | B1
2 | 88.3 | B2
3 | 67.8 | B3

target: T3, hPD-L1-His (human, UniProt Q9NZQ7 19-238); test: SPR (Biacore T200), antibody on Protein A chip, hPD-L1-His injected, 1:1 fit
T3 construct: Bought protein; also called hPD-L1-His (manufactured by Edison); not shown: His tag
Description: Subsequently, the binding affinity of the anti-PD-L1 chimeric antibody, humanized antibody, and marketed control antibody to hPD-L1-His (manufactured by Edison) were determined by surface plasmon resonance (Biacore T200 biosensor, Biacore, INC, Piscataway N.J.) equipped with pre-immobilized Protein A sensor chips.
The detection results were read after the chip was regenerated with pH 2.0 glycine (30 μl/min, 10-20 s). Kinetic association rates (kon) and dissociation rates (koff) were obtained simultaneously by fitting the data globally to a 1:1 Langmuir binding model (Karlsson, R. Roos, H. Fagerstam, L. Petersson, B., 1994. Methods Enzymology 6. 99-110) using Biacore T200 Evaluation Software 3.0. Affinities were deduced from the quotient of the kinetic rate constants (KD=koff/kon).

T3 sequence (Q9NZQ7 19-238 limits assumed): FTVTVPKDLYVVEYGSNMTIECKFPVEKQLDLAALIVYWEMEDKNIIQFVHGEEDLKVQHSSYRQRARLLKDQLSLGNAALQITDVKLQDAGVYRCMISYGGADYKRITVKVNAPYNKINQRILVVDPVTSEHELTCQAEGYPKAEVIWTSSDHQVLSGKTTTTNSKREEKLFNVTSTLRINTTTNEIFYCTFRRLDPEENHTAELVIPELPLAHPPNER

Row | Kd [nM] | koff [s⁻¹] | kon [M⁻¹ s⁻¹] | Binder
4 | 27 | 0.00344 | 128000 | B4
5 | 14.5 | 0.00218 | 150000 | B5
6 | 23.9 | 0.00352 | 147000 | B6
7 | 19.3 | 0.00299 | 155000 | B7
8 | 12.7 | 0.00163 | 128000 | B8

target: T4, Mouse PD-L1 on CHO cells (mouse, UniProt Q9EP73 19-290); test: flow cytometry, CHO-mPD-L1 cells, Anti-mouse-IgGFc-FITC, antibody 1 µg/ml
T4 construct: Expressed in CHO cells for the cross-reactivity test; also called mPD-L1; murine PD-L1 protein
Excerpt: as §1, §2

Row | % cells in the FITC-positive gate [%] | Binder
9 | 4.56 | B1
10 | 7.37 | B2
11 | 1.1 | B3

target: T4, Mouse PD-L1 on CHO cells; test: flow cytometry, CHO-mPD-L1 cells, Anti-human IgG Fc-FITC, antibody 1 µg/ml
Target sequence in this assay (Q9EP73 19-290 limits assumed): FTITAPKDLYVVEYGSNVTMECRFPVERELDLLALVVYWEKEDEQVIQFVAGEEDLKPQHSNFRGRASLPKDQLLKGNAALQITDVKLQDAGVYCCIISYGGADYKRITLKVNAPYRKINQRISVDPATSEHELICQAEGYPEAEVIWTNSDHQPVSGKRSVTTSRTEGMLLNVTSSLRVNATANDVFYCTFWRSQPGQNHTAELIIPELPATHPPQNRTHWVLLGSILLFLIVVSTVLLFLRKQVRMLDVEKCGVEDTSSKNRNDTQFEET

Row | % cells in the FITC-positive gate [%] | Binder
12 | 0.556 | B9
13 | 0.886 | B10
14 | 15.5 | B11
15 | 3.07 | B12

target: T4, Mouse PD-L1 on CHO cells; test: flow cytometry on CHO cells expressing mPD-L1
Excerpt: as §1, §2

Row | binding result | Binder
16 | no binding (tested: 1 µg/ml) | B9
17 | no binding (tested: 1 µg/ml) | B1
18 | no binding (tested: 1 µg/ml) | B2
19 | no binding (tested: 1 µg/ml) | B10
20 | no binding (tested: 1 µg/ml) | B11
21 | no binding (tested: 1 µg/ml) | B12
22 | no binding (tested: 1 µg/ml) | B3

Target: T2, Rhesus monkey PD-L1 on CHO cells
Test: flow cytometry, CHO-rmPD-L1 cells, Anti-mouse-IgGFc-FITC, antibody 1 µg/ml
Excerpt: as §1, §2

Row | % cells in the FITC-positive gate [%] | Binder
23 | 51.4 | B1
24 | 60.9 | B2
25 | 64.9 | B3
